Numbering of substitutions follows the chain as printed. Names may count otherwise. One block for each binder: values may come before it.
What was measured:
Details in all cases: both partners purified
e5-FtsB_(25–103) = biological target: T1, e5-FtsB_(25–103) (E. coli, UniProt P0A6S5 25-103); test: SEC; analytical gel filtration, Superdex 200 10/300 GL, buffer B (20 mM Tris-HCl pH 8.0, 200 mM NaCl), 0.5 mL/min; high concentrations (101–370 μM); apparent Stokes radius compared with radii calculated from models
T1 chain: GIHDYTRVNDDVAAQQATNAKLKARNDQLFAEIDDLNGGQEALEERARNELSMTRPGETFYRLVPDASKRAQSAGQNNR

FtsQ_(50–276) [1] = biological target: T2, FtsQ_(50–276) (E. coli, UniProt P06136 50-276); test: as above
T2 construct: pET21a; also called periplasmic domain of FtsQ; WT FtsQ; source: for the complexes purified together with its partners from mixed cell pellets
T2 sequence (P06136 50-276): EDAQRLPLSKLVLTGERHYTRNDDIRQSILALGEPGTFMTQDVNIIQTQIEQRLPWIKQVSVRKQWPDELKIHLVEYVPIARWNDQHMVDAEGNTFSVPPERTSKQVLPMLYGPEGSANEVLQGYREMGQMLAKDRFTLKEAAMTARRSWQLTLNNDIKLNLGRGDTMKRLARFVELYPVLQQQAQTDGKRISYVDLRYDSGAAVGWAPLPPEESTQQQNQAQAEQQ

FtsQ_(50–276) [2] = biological target: T2, FtsQ_(50–276); test: BLI; BLItz; GST-fused FtsB proteins or GST-e5-FtsB/k5-FtsL complexes immobilised on AR2G biosensor by amine coupling; FtsQ_(50–276) (WT or Y248A) in solution, 0.1–80 μM; running buffer 20 mM Tris-HCl pH 8.0, 200 mM NaCl; equilibrium analysis of points at 100 s

B3: GST-fused FtsB_(25–103) (domain or fragment, E. coli, UniProt P0A6S5 25-103, looked up)
chain: T1 chain
notes: pGST2; source: E. coli BL21 (DE3), purified (glutathione-Sepharose, gel filtration); not shown: GST, N-terminal, kept
Kd (FtsQ_(50–276) [2]): 670 nM

B4: GST-fused FtsB_(61–103) (domain or fragment, E. coli, UniProt P0A6S5 61-103, looked up)
chain: NGGQEALEERARNELSMTRPGETFYRLVPDASKRAQSAGQNNR
notes: as for B3
Kd (FtsQ_(50–276) [2]): 900 nM

Continued, values first:

stoichiometry N (e5-FtsB_(25–103)): 1 FtsB:FtsL ratio (2:2)
B1: k5-FtsL_(64–121) (domain or fragment)
chain: TAQREQLVLERDALDIEWRNLILEENALGDHSRVERIATEKLQMQHVDPSQENIVVQK

binding result (FtsQ_(50–276) [1]): binds
B2: FtsB_(25–103) L46P (domain or fragment, E. coli, UniProt P0A6S5 25-103, looked up)
chain: T1 chain with L22P
notes: also called FtsQB L46P mutant

From PMC6305486, “Structural Insights into the FtsQ/FtsB/FtsL Complex, a Key Component of the Divisome” (Scientific Reports, 2018)
